According to patent publication US12383572B2, “Administration of an anti-activin-a compound to a subject” (AMGEN INC., priority 2013, dated 2025):

How the values were obtained:
[1] = system: TOV-21G, MRC-5, CCD-Lu and THP-1 cell cultures; experiment: VEGF and Ang-1 ELISA of cell culture medium after recombinant activin-A; type: cell-based, human; conditions: TOV21G, MRC-5, CCD-Lu and TPH-1 cells treated with activin-A
Experimental: The serum VEGF levels in inh-KO mice were measured by using immunoassay kit (R & D Systems), and the levels of human VEGF and Ang-1 in cell line culture medium were quantified using ELISA kits purchased from Invitrogen (VEGF) and R & D Systems (Ang-1), by following the manufacturers' recommended protocols.

[2] = system: TOV-21G, BAEC, MRC-5, CCD-Lu, U937 and THP-1 cultures; experiment: Real-time RT-PCR of VEGF, Ang-1 and βA in cell cultures treated with recombinant activin-A; type: cell-based; conditions: BAEC
Excerpt: ID NO: 291), [NT] ID NO: 292), and TaqMan probe [NT] ID NO: 293).

B1: recombinant activin-A: Recombinant activin-A was produced using mammalian expression system (Amgen Inc) (protein, UniProt P08476 311-426, looked up)
Inhibin beta A chain: GLECDGKVNICCKKQFFVSFKDIGWNDWIIAPSGYHANYCEGECPSHIAGTSGSSLSFHSTVINHYRMRGHSPFANLKSCCVPTKLRPMSMLYYDDGQNIIKKDIQNMIVEECGCS
For B1, the “release of VEGF into the culture medium (ELISA)” value [1] was “increased the release of VEGF”, the “Ang-1 mRNA (real-time PCR)” value ([2]; MRC-5 and CCD-Lu cultures treated with recombinant activin-A) was “also of Ang-1 mRNA in BAEC, MRC-5 and CCD-Lu cultures” and the “endogenous activin-A (βA) mRNA expression” value ([2]; TOV21G, MRC-5, CCD-Lu, U937 and THP-1 cultures, recombinant activin-A added) was “markedly upregulated βA expression in all these cells”. The “VEGF transcripts (real-time PCR)” value ([2]; TOV-21G, MRC-5 or CCD-Lu, U937 cultures treated with recombinant activin-A) was “marked increases in the levels of VEGF transcripts in all these cultures”.
